This passage reports enrichment results from article PMC10244618.

To fix the notation:
B1: NF2 (merlin) isoform 7, human, full length (507 aa, lacks exons 2-3 = isoform-1 residues 39-121; exon-16 C-terminus), P35240-4 (parent)
chain: MAGAIASRMSFSSLKRKQPKTFTVRIVTMDAEMEFNCEVKKQILDEKIYCPPEASVLLASYAVQAKYGDYDPSVHKRGFLAQEELLPKRVINLYQMTPEMWEERITAWYAEHRGRARDEAEMEYLKIAQDLEMYGVNYFAIRNKKGTELLLGVDALGLHIYDPENRLTPKISFPWNEIRNISYSDKEFTIKPLDKKIDVFKFNSSKLRVNKLILQLCIGNHDLFMRRRKADSLEVQQMKAQAREEKARKQMERQRLAREKQMREEAERTRDELERRLLQMKEEATMANEALMRSEETADLLAEKAQITEEEAKLLAQKAAEAEQEMQRIKATAIRTEEEKRLMEQKVLEAEVLALKMAEESERRAKEADQLKQDLQEAREAERRAKQKLLEIATKPTYPPMNPIPAPLPPDIPSFNLIGDSLSFDFKDTDMKRLSMEIEKEKVEYMEKSKHLQEQLNELKTEIEALKLKERETALDILHNENSDRGGSSKHNTIKKPQAQGRRPICI

Where “and” joins values, the source holds several entries; their conditions need not be identical. Equal entries are not always repeated.

Variants of B1 are the subject of one experiment. The experiment can be described thus: reverse yeast two-hybrid deep mutational scan (rY2H-seq): NF2 isoform 7 mutant library as bait mated with wild-type prey strains; selection on medium lacking adenine for non-interacting pairs; NextSeq paired-end sequencing; enrichment vs …. The following applies: with PIK3R3 (phosphatidylinositol 3-kinase regulatory subunit gamma), Q92569; yeast diploids after mating (RBait_S3 x RPrey_S3), 30 °C, selection for reporter genes on NB agar; human tyrosine kinase ABL2 co-expressed as the active kinase …; HIGHER = WEAKER BINDING (the opposite of display enrichments): higher = stronger loss of interaction: reverse Y2H selects yeast in which bait and prey do NOT interact (growth without adenine), so a …; hits-only table; scale: rY2H score; numbering: uniprot, sequence starts at 1.
Turning to L57F, the enrichment is 1.98. As to I213F, the enrichment stood at 15.3. Turning to S204F, the enrichment was 3.76 and 3.21.

The experiment is the same for the next values; noted with them: with EMILIN1 (elastin microfibril interfacer 1), Q9Y6C2; yeast diploids after mating (RBait_S3 x RPrey_S3), 30 °C, selection for reporter genes on NB agar; human ABL2 co-expressed as the kinase-dead K35M mutant …; HIGHER = WEAKER BINDING (the opposite of display enrichments): higher = stronger loss of interaction: reverse Y2H selects yeast in which bait and prey do NOT interact (growth without adenine), so a …; hits-only table; scale: rY2H score; numbering: uniprot, sequence starts at 1.
For I213F, the enrichment was 7.19 and 3.36. As to S172F, the enrichment came to 1.58. As to A406F, the enrichment stood at 10.8.

The same experiment, now with this note: with EMILIN1 (elastin microfibril interfacer 1), Q9Y6C2; yeast diploids after mating (RBait_S3 x RPrey_S3), 30 °C, selection for reporter genes on NB agar; human tyrosine kinase ABL2 co-expressed as the active kinase …; HIGHER = WEAKER BINDING (the opposite of display enrichments): higher = stronger loss of interaction: reverse Y2H selects yeast in which bait and prey do NOT interact (growth without adenine), so a …; hits-only table; scale: rY2H score; numbering: uniprot, sequence starts at 1.
For the variant I213F, the enrichment worked out at 3.35.

Consider N402F, for which the enrichment was 4.91.

For I505F, the enrichment was 1.61.

Staying with this experiment, now noted: with KDM1A (lysine-specific histone demethylase 1A; the table's label AOF2 is a gene synonym of KDM1A), O60341; yeast diploids after mating (RBait_S3 x RPrey_S3), 30 °C, selection for reporter genes on NB agar; human tyrosine kinase ABL2 co-expressed as the active kinase …; HIGHER = WEAKER BINDING (the opposite of display enrichments): higher = stronger loss of interaction: reverse Y2H selects yeast in which bait and prey do NOT interact (growth without adenine), so a …; hits-only table; scale: rY2H score; numbering: uniprot, sequence starts at 1.
As for I213F, the enrichment was found to be 6.76. Take S60F: the enrichment is 3.51. Regarding I505F, the enrichment came to 2.14.

Staying with this experiment, now noted: with NF2 C-terminal domain (wild type; homomeric NF2-NF2 interaction), P35240; yeast diploids after mating (RBait_S3 x RPrey_S3), 30 °C, selection for reporter genes on NB agar; human ABL2 co-expressed as the kinase-dead K35M mutant …; HIGHER = WEAKER BINDING (the opposite of display enrichments): higher = stronger loss of interaction: reverse Y2H selects yeast in which bait and prey do NOT interact (growth without adenine), so a …; hits-only table; partner unresolved; scale: rY2H score; numbering: uniprot, sequence starts at 1.
Turning to I213F, the enrichment amounted to 4.21. As to I505F, the enrichment stood at 2.29.

The same experiment, now with this note: with KDM1A (lysine-specific histone demethylase 1A; the table's label AOF2 is a gene synonym of KDM1A), O60341; yeast diploids after mating (RBait_S3 x RPrey_S3), 30 °C, selection for reporter genes on NB agar; human ABL2 co-expressed as the kinase-dead K35M mutant …; HIGHER = WEAKER BINDING (the opposite of display enrichments): higher = stronger loss of interaction: reverse Y2H selects yeast in which bait and prey do NOT interact (growth without adenine), so a …; hits-only table; scale: rY2H score; numbering: uniprot, sequence starts at 1.
Consider N402F, for which the enrichment was 24.7.
